Experimental data reported in publication PMC3253524 (Biochemical Journal, 2011).

How the values were obtained:
[1] = biological target: T1, GST–human PPARγ (full-length PPARγ–GST fusion protein) (human, UniProt P37231 1-505); test: pull-down
T1 sequence (looked up): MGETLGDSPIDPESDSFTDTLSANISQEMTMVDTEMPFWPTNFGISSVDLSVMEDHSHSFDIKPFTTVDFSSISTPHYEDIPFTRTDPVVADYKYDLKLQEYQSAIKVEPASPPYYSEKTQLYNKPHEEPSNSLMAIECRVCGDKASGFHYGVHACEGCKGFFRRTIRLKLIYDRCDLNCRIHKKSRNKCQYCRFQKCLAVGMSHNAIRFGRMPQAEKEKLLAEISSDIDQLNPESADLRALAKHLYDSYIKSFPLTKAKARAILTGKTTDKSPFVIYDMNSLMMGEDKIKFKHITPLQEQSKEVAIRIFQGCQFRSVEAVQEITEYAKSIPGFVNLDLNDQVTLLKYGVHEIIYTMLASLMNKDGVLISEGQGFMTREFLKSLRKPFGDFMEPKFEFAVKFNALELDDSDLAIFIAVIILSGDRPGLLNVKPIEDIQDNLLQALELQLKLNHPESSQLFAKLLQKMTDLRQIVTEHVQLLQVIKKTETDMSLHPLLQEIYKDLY

[2] = biological target: T1, GST–human PPARγ (full-length PPARγ–GST …); test: pull-down; remark: listed apart in the source

B1: SRC-1-S2, a truncated SRC-1 (steroid receptor co-activator-1) protein (amino acids 623–770) (domain or fragment, human, UniProt Q15788 623-770, looked up)
chain: DSKYSQTSHKLVQLLTTTAEQQLRHADIDTSCKDVLSCTGTSNSASANSSGGSCPSSHSSLTERHKILHRLLQEGSPSDITTLSVEPDKKDSASTSVSVTGQVQGNSSIKLELDASKKKESKDHQLLRYLLDKDEKDLRSTPNLSLDD
[1]
  fold binding relative to the vehicle control, with 50 μM Pio: 17 fold
[2]
  fold binding relative to the vehicle control, with 50 μM FPP: 6.1 fold
  fold binding relative to the vehicle control, with 100 μM FPP: 15 fold
